Experimental findings from the supplement of paper PMC9112550, “Optimization of the antimicrobial peptide Bac7 by deep mutational scanning” (BMC Biology, 2022) are described below.
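Further: peptides expressed intracellularly from a pBAD plasmid library in pooled LB shake-flask culture, induced with 0.3% L-arabinose, DNA abundance read by NGS, three biological replicates, DESeq2 with apeglm shrinkage.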

The series deals with Escherichia coli TOP10. Description: shrunken log2 fold change of peptide-encoding DNA abundance (4.5 h post-induction vs induction); higher = less antimicrobial activity (less host growth inhibition). The following applies: time post-induction: 4.5 h; library: site-saturation at positions 5, 18, 19, 20.
RRIRTRPPRLPRPRPRPFLDPRP: the “shrunken log2 fold change” value was -0.553.
Under RRIRHRPPRLPRPRPRPPELPRP stands 0.469; under RRIRVRPPRLPRPRPRPWFRPRP, -0.304.
Turning to RRIRDRPPRLPRPRPRPIQPPRP, the “shrunken log2 fold change” value is 0.00911.
Next, RRIRPRPPRLPRPRPRPPMSPRP: -0.0803; RRIRARPPRLPRPRPRPPPPPRP: 1.46.
Next, RRIRARPPRLPRPRPRPFWQPRP: 0.0762.
Under RRIRTRPPRLPRPRPRPQTMPRP stands -0.151; under RRIRIRPPRLPRPRPRPRQMPRP, 0.0961.
As to RRIRSRPPRLPRPRPRPRMPPRP, the “shrunken log2 fold change” value came out at 0.0543.
Under RRIRERPPRLPRPRPRPVFFPRP stands 0.0585.
Next, RRIRIRPPRLPRPRPRPEESPRP: 0.124.
On to RRIRERPPRLPRPRPRPKWQPRP, for which the “shrunken log2 fold change” value is -0.0355.
Consider RRIRRRPPRLPRPRPRPKWSPRP, for which the “shrunken log2 fold change” value came out at 0.457.
Next, RRIRNRPPRLPRPRPRPSMGPRP: -0.0455.
Next, RRIRFRPPRLPRPRPRPHQCPRP: -0.315; RRIRIRPPRLPRPRPRPAVPPRP: -0.181.
For the sequence RRIRERPPRLPRPRPRPEQSPRP, the “shrunken log2 fold change” value is -0.0108.
Under RRIRKRPPRLPRPRPRPTIHPRP stands -0.087; under RRIRYRPPRLPRPRPRPYYAPRP, -0.634; under RRIRTRPPRLPRPRPRPTSEPRP, -0.126.
In the case of RRIRWRPPRLPRPRPRPRGDPRP, the “shrunken log2 fold change” value stood at 1.03.
On to RRIRFRPPRLPRPRPRPRCGPRP, for which the “shrunken log2 fold change” value stood at 0.114.
Next, RRIRDRPPRLPRPRPRPAVQPRP: -0.00697; RRIRFRPPRLPRPRPRPPVAPRP: 0.987; RRIRWRPPRLPRPRPRPMMQPRP: 0.195.
Consider RRIRRRPPRLPRPRPRPRKTPRP, for which the “shrunken log2 fold change” value was determined as 0.615.
Next, RRIRGRPPRLPRPRPRPKCFPRP: 0.852; RRIRYRPPRLPRPRPRPRWNPRP: -0.102; RRIRNRPPRLPRPRPRPSHKPRP: -0.291.
Under RRIRSRPPRLPRPRPRPVLAPRP stands 0.557.
For the sequence RRIRIRPPRLPRPRPRPGWRPRP, the “shrunken log2 fold change” value was 0.468.
Under RRIRPRPPRLPRPRPRPEGNPRP stands 0.189.
Next, RRIRTRPPRLPRPRPRPTVAPRP: 0.22.
Under RRIRFRPPRLPRPRPRPMDVPRP stands -0.0444; under RRIRIRPPRLPRPRPRPADVPRP, -0.134.
On to RRIRHRPPRLPRPRPRPCQLPRP, for which the “shrunken log2 fold change” value was -0.0748.
On to RRIRMRPPRLPRPRPRPADAPRP, for which the “shrunken log2 fold change” value worked out at 1.21.
Regarding RRIRCRPPRLPRPRPRPNEDPRP, the “shrunken log2 fold change” value worked out at 0.0261.
Next, RRIRNRPPRLPRPRPRPEGYPRP: -0.169; RRIRDRPPRLPRPRPRPRDCPRP: 0.0952.
Next, RRIRSRPPRLPRPRPRPKTWPRP: -0.0488.
In the case of RRIRHRPPRLPRPRPRPDELPRP, the “shrunken log2 fold change” value is -0.000777.
Next, RRIRYRPPRLPRPRPRPQYMPRP: -0.192; RRIRARPPRLPRPRPRPTLGPRP: 0.504.
Under RRIRARPPRLPRPRPRPPPDPRP stands 1.18.
Regarding RRIRYRPPRLPRPRPRPDCHPRP, the “shrunken log2 fold change” value was -0.0362.
Take RRIRVRPPRLPRPRPRPPDCPRP: the “shrunken log2 fold change” value was -0.0843.
Under RRIRKRPPRLPRPRPRPLYWPRP stands 0.149.
Under RRIRSRPPRLPRPRPRPYACPRP stands -0.0148.
Under RRIRVRPPRLPRPRPRPDWNPRP stands -0.343; under RRIRQRPPRLPRPRPRPPKIPRP, 0.156; under RRIRARPPRLPRPRPRPVWEPRP, 0.228.
For the sequence RRIRMRPPRLPRPRPRPGHLPRP, the “shrunken log2 fold change” value stood at 0.0373.
Next, RRIRIRPPRLPRPRPRPQSYPRP: -0.603; RRIRHRPPRLPRPRPRPLIRPRP: -0.217; RRIRIRPPRLPRPRPRPMKEPRP: 0.116.
Under RRIRNRPPRLPRPRPRPNKRPRP stands -0.221; under RRIRQRPPRLPRPRPRPRNLPRP, 0.242; under RRIRRRPPRLPRPRPRPKWGPRP, 1.2.
Under RRIRDRPPRLPRPRPRPFWAPRP stands 0.141; under RRIRIRPPRLPRPRPRPTTRPRP, -0.0487.
As for RRIRTRPPRLPRPRPRPDNLPRP, the “shrunken log2 fold change” value was -0.479.
Next, RRIRLRPPRLPRPRPRPNMIPRP: -0.571.
Turning to RRIRVRPPRLPRPRPRPIQRPRP, the “shrunken log2 fold change” value is -0.0384.
Under RRIRNRPPRLPRPRPRPLIIPRP stands -0.433; under RRIRNRPPRLPRPRPRPPKTPRP, -0.103; under RRIRERPPRLPRPRPRPHSVPRP, -0.00145.
Regarding RRIRQRPPRLPRPRPRPNGNPRP, the “shrunken log2 fold change” value was -0.405.
Next, RRIRARPPRLPRPRPRPMRRPRP: 0.2; RRIRGRPPRLPRPRPRPEGMPRP: 1.34; RRIRWRPPRLPRPRPRPQSTPRP: 0.02.
Next, RRIRVRPPRLPRPRPRPRIMPRP: -0.601.
With RRIRHRPPRLPRPRPRPALCPRP, the “shrunken log2 fold change” value stood at 0.174.
Under RRIRERPPRLPRPRPRPKTQPRP stands -0.102; under RRIRQRPPRLPRPRPRPEHVPRP, 0.00725.
Under RRIRDRPPRLPRPRPRPNPEPRP stands 0.0935; under RRIRNRPPRLPRPRPRPTHCPRP, 0.085; under RRIRQRPPRLPRPRPRPIVNPRP, -0.0197.
Under RRIRQRPPRLPRPRPRPRKAPRP stands -0.0029.
For the sequence RRIRVRPPRLPRPRPRPDVEPRP, the “shrunken log2 fold change” value is 0.372.
As for RRIRDRPPRLPRPRPRPRNGPRP, the “shrunken log2 fold change” value worked out at 0.0517.
Under RRIRYRPPRLPRPRPRPCMFPRP stands -0.981.
Under RRIRSRPPRLPRPRPRPLMDPRP stands -0.00235; under RRIRMRPPRLPRPRPRPYYMPRP, -0.0189; under RRIRYRPPRLPRPRPRPAAHPRP, -0.134.
Take RRIRARPPRLPRPRPRPLVIPRP: the “shrunken log2 fold change” value was -0.152.
Under RRIRFRPPRLPRPRPRPKCIPRP stands -0.338; under RRIRIRPPRLPRPRPRPDLGPRP, -0.0274.
Next, RRIRFRPPRLPRPRPRPWYKPRP: -0.145; RRIRRRPPRLPRPRPRPTEKPRP: 0.155; RRIRWRPPRLPRPRPRPTEMPRP: -0.00675.
Next, RRIRDRPPRLPRPRPRPEKKPRP: -0.0317; RRIRDRPPRLPRPRPRPPHCPRP: 0.0674; RRIRHRPPRLPRPRPRPRGSPRP: -0.00481.
For the sequence RRIRRRPPRLPRPRPRPCITPRP, the “shrunken log2 fold change” value was -0.846.
Next, RRIRIRPPRLPRPRPRPHMMPRP: -1.37; RRIRNRPPRLPRPRPRPWIFPRP: -0.201.
Next, RRIRKRPPRLPRPRPRPEPNPRP: 0.737.
Under RRIRDRPPRLPRPRPRPSTVPRP stands 0.154.
As for RRIRMRPPRLPRPRPRPFMLPRP, the “shrunken log2 fold change” value was -0.213.
Under RRIRLRPPRLPRPRPRPGRHPRP stands 0.0767; under RRIRWRPPRLPRPRPRPGQWPRP, 0.032.
Turning to RRIRQRPPRLPRPRPRPIASPRP, the “shrunken log2 fold change” value was -0.0483.
Next, RRIRNRPPRLPRPRPRPNDHPRP: -0.153.
Under RRIRTRPPRLPRPRPRPKEQPRP stands 0.0592.
Next, RRIRRRPPRLPRPRPRPFMQPRP: -0.0994; RRIRERPPRLPRPRPRPGPFPRP: -0.128.
Consider RRIRERPPRLPRPRPRPDKHPRP, for which the “shrunken log2 fold change” value turned out to be 0.236.
Under RRIRERPPRLPRPRPRPSLKPRP stands -0.217.
Under RRIRYRPPRLPRPRPRPTSMPRP stands -1; under RRIRSRPPRLPRPRPRPHRDPRP, -0.141; under RRIRHRPPRLPRPRPRPAVYPRP, -0.0534.
For the sequence RRIRPRPPRLPRPRPRPPFTPRP, the “shrunken log2 fold change” value is 0.185.
Under RRIRVRPPRLPRPRPRPQRYPRP stands -0.883; under RRIRTRPPRLPRPRPRPQMDPRP, -0.195; under RRIRDRPPRLPRPRPRPTPKPRP, 0.346.
Next, RRIRRRPPRLPRPRPRPRARPRP: 0.618.
With RRIRYRPPRLPRPRPRPDNWPRP, the “shrunken log2 fold change” value was -0.38.
Under RRIRCRPPRLPRPRPRPHKNPRP stands -0.418; under RRIRLRPPRLPRPRPRPMETPRP, 0.483; under RRIRSRPPRLPRPRPRPPGEPRP, 0.756.
Take RRIRVRPPRLPRPRPRPTPEPRP: the “shrunken log2 fold change” value is 0.639.
As for RRIRPRPPRLPRPRPRPYWKPRP, the “shrunken log2 fold change” value is -0.189.
Under RRIRRRPPRLPRPRPRPTVLPRP stands -0.227.
